Test: yeast display, Sf9 membrane polyspecificity reagent, FACS + sequencing; frameworks hold sequencing errors
Outline: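 A nanobody's polyreactivity label depends on the gate it was sorted from. Yeast display cells were stained with 10% biotinylated, detergent-solubilized Sf9 membrane reagent for 1 hour at 4 °C, enriched on streptavidin microbeads and sorted by FACS. The low and high (top ~1%) gates were set on anti-HA fluorescence for expression and streptavidin fluorescence for reagent binding.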

Sequence | polyreactivity (PSR sort gate)
QVHLVESGGGLVQAGGSLRLSCAASGRTFYDYAMGWYRQAPGKERELVAAITYSGGSTFYADSVKGRFTISRDNAKNTFYLQMNSLKPEDTAVYYCAAEVLRLVGAAEYDYWGQGTQVTVSS | low polyreactivity
QVHLVESGGGLVQAGGSLRLSCAASGRTFYRNAMGWYRQAPGKERELVAAIRTRTGSTYYADSVKGRFTISRDNAKNTVYLQMNSLKPEDTAGYYCAALAWYPYYASWPVESDYWGQGTQVTVSS | high polyreactivity
QVHLVESGGGLVQAGGSLRLSCAASGRTIDRNTMGWYRQAPVKERELVATITWSVGRTYYADSVKGRFTISRDNGKITVYVQMISMKPEDTGVYFCAAGIYAYKYESWGHGTQVTVSS | high polyreactivity
QVHLVESGGGLVQAGGSLRLSCAASGRTIHSYAMGWYRQAPGKERELVAAINNGGGTYYADSVKGRFTISRDNAKNTVYLQMNSRKPEDTAVYYCAAATRKRIGSYYYWGQGTQVTVSS | high polyreactivity
QVHLVESGGGLVQAGGSLRLSCAASGRTSIFNAMGWYRPAPGKERELVAAITARGASTYYADSVKGRFTISRDNAKNTVYLQKNSLKPDDTAVYYCAARDHAFRYYRNPFKGKYDYWGQGTQVTVSS | low polyreactivity
QVHLVESGGGLVQAGGSLRLSCAASGSIFAGNAMGLSRQAPGKERELVAGISRSGGSTNYADSVKGRFTISRDNAKNSVYLQMNSLKPEDTAVYYCNTDPYSSAWYNYDYWGLGTQVTVSS | low polyreactivity
QVHLVESGGGLVQAGGSLRLSCAASGSIFFVYAMGWYRQAPGKERELVAAISNDGSTNYADSVKGRFTISRDNAKNTVYLQMNSLKPEDTAVYYCAADPSLRQYAYFDYDYWGQGTQVTVSS | low polyreactivity
QVHLVESGGGLVQAGGSLRLSCAASGSIFGDNTMGWYRQAPGKERELVAAISQSSGTSTYYADSVKGRFTISRDNAKNTVYFQMNSLKPEDTAVYYCAKDPHGSDFGYWGQVTQVTVSS | low polyreactivity
QVHLVESGGGLVQAGGSLRLSCAASGSIFGSYAMGWYRQAPGKERELVAAITIADITYYADSVKGRFTISRDNAKNTVNLQMNSLKPEDTAVYYCNAYWGWRDSWYYYWGQGTQVTVSS | low polyreactivity
QVHLVESGGGLVQAGGSLRLSCAASGSIFIVYTMGWYRQAPGKERELVAAISSGGITDYADSVKGRFTISRDNAKNTVYLQMNSLKPEDTAVYYWGQGTQVTVSS | low polyreactivity
QVHLVESGGGLVQAGGSLRLSCAASGSIFRIYAMGWYRQAPGKERELVAAINAGGGRTYYADSVKGRFTISRDNAKNTVYLQMNSLKPEDNAVYFCAARHTEYRQESLYYWGQGTQVTVSS | low polyreactivity
QVHLVESGGGLVQAGGSLRLSCAASGSIFSVYTRGWYRQAPGKERELVAAISTGGGSTYYADSVKGRFTISRDNAKNTVYLQMNSLKPEDTAVYYCATDYGWAPSYWYDSCGQGTQVTVSS | low polyreactivity
QVHLVESGGGLVQAGGSLRLSCAASGSIFVLYAMGWYRQAPGKERELVAAISRGVGGTNYADSVKGRFTISRDNAKNTVYLQMNSLKPEDTAVYYCAADWLWAWHYYGAMDYWGQGTQVTVSS | high polyreactivity
QVHLVESGGGLVQAGGSLRLSCAASGSIFVSNAMGWYRQAPGKERELVAAIRGVDSTYYADSVKGRFTISRDNAKNTVYLQMNSLKPEDTAVYYCATPGPGYTRYYYWGQGTQVTVSS | high polyreactivity
QVHLVESGGGLVQAGGSLRLSCAASGSIFWYYGMGWYRQAPGKERELVASITSGGSTNYADSVKGRFSISRDNAKNTVYLQMNRLKPEDSAVYYCNTDDDSSSTGYYSWGQGTQVNVSS | low polyreactivity
QVHLVESGGGLVQAGGSLRLSCAASGSIFYPYAMGWYRQAPGKERELVAAISGRGGNTYYADSVKGRFTISRDNAKNTVYFQMNSLKPEDTAVYYCAADRYYWSLYGYDYWGQGTQVTVSS | high polyreactivity
QVHLVESGGGLVQAGGSLRLSCAASGSIIRYYAMGWYRQAPGKERELVAVITRGGSTYYADSVKGRFTISRDNAKSTVYLQMNSLKPEDTAVYYCAADYWPAGLDRGYWGQGTQVTVSS | low polyreactivity
QVHLVESGGGLVQAGGSLRLSCAASGSILLRYAMGWYRQAPGKERELVAAIRTIGASTYYADSVKGRFTISRDNAKNTVYLQMNSLKPEDTAVYYCNAYLAEVLPLGKGRLYDYWGLGTQVTVSS | low polyreactivity
QVHLVESGGGLVQAGGSLRLSCAASGSIYHNAMGWYRQAPGKERELVAAITSSGGRTYYADSVKGRFTISRDNAKNTVYLQMNSLKPEDTAVYYCNALAHQYHRYEFGYWGQGTQVTVSS | low polyreactivity
QVHLVESGGGLVQAGGSLRLSCAASGSNFRSYAMGWYRQAPWKERELDAAISSSGGRTYYADSVKGRFTISRDNAKNTVYLQMNSVKPEDNAVYYCAAYRGGGYKYDYWGQGTQVTVSS | high polyreactivity

Sequence | polyreactivity (PSR sort gate)
QVHLVESGGGLVQAGGSLRLSCAASGSTFAVYAMGWYRQAPWKESELVAGISSRGGRTYYADSVKGRFTISRDNAKNTVYLQMNSLKPEDTAVYYCNVVYTYWRYYRWREYDYWGQGTQVTVSS | high polyreactivity
QVHLVESGGGLVQAGGSLRLSCAASGSTFAYNAMGWYRTAPGKERELVAAISSSGGRTYYADSVKGRFTLSRDNAKNTVYLQMISLKPEDTAVYYCNAAYYYTYGYWGQGTEVTVSS | high polyreactivity
QVHLVESGGGLVQAGGSLRLSCAASGSTFFYAMGWYRQAPRKERELVAAISWIDSLTYYADSVKGRFTISRDNEKITVYLQMNILKAEDTAFYYCAAEGQNEGYDYWGQGSQVTVSS | high polyreactivity
QVHLVESGGGLVQAGGSLRLSCAASGSTFGSNAMGWYRQAPGKERELVAAITNGGSTNYADSVKGRFTISRDNAKNTVYLQMNSLKPDDTAVYYCNGDPQQSKLWTYFFGFPGYYWGQGTQVTVSS | low polyreactivity
QVHLVESGGGLVQAGGSLRLSCAASGSTFILNAMGWYRQAPGKERELVATISSSDTSTYYADSVKGRFTISRDNAKNTVYLQMNSLKPEDTAVYYCNADYYTTSYLQRVYHYGVEYDYWGQGTQVTVSS | low polyreactivity
QVHLVESGGGLVQAGGSLRLSCAASGSTFISYAMGWYRQAPGKERELVAAISRNGGRTYYADSVKGRFTISRDNAKNTVYLQMNSLKPEDTAVYYCAAAYNSYRFDYWGQGTQVTVSS | high polyreactivity
QVHLVESGGGLVQAGGSLRLSCAASGSTFKPYTMGWYRQAPGKERELVAAITSRGTSTYYADSVKGRFKISRDNAKNTVYLQMNSLKPEDTEVYYCAARRPGTFSYGYWGQGTQVTVSS | high polyreactivity
QVHLVESGGGLVQAGGSLRLSCAASGSTFKRYAMGWYRQAPGKERELVASISQRGGTTYYADSVKGRFTISRDNAKNTVYLQMNSLKPEDTAVYYCANGFGWTRTIYDYWGQGTQVTVSS | high polyreactivity
QVHLVESGGGLVQAGGSLRLSCAASGSTFPANAMGRYRQAPGKERELVAAITSGGSTNYADSVKGRFTISRDNAKNTVYLQMNSLKPEDTAVYYCADESYQAHSFYVYYGYDYWGQGTQVTVSS | low polyreactivity
QVHLVESGGGLVQAGGSLRLSCAASGSTFPYYDMGWYRQAPGKERELVAAITYNGGNTYYADSVKGRFTISRDNAKNTVYLQMNSLKPEDTAVYYCAADGTLARLYYWATGDEDGYWGQGTQVTVSS | low polyreactivity
QVHLVESGGGLVQAGGSLRLSCAASGSTFQSNAMGWYRQAPGKERELVATITQSGATTYYADSVKGRFTISRDNAKNTVYLQMNSLKPEDTAVYYCNVDTYQKRWFWLDLDGGYWGQGTQVTVSS | low polyreactivity
QVHLVESGGGLVQAGGSLRLSCAASGSTFQTNAMGWSRQAPGKERELVAAISRTGGRSNYADSVKGRFTISRDNAKNTVYLQMHSLKPEDTAVYDCAAGVPKTGQAGYDYWGQGTQVTVSS | high polyreactivity
QVHLVESGGGLVQAGGSLRLSCAASGSTFRYYAMGWYRQAPGKERELVAAIRDSGGSTYYADSVKGRFTISRDNAKNTVYLQMNSLKPEDTAVYYCARRAYRWYSAYDSWGQGTQVTVSS | high polyreactivity
QVHLVESGGGLVQAGGSLRLSCAASGSTFSGYTMGWYRQAPGKEREFVAAISSRGGSTYYADSVKGRFTISRDNAKNSVYLQMNSVNPEDTAVYYCAAKVWARVDGRQFRLEYWGQGTQVTVSS | high polyreactivity
QVHLVESGGGLVQAGGSLRLSCAASGSTFVGNAMGWNRKAPGKERELVATISNSGGRTYYADSVKGPFTISRDNAKNTVYLEMNSLKPEDTAVYYCAADHPAFGPVYSFDYWGQGTQVTVSS | low polyreactivity
QVHLVESGGGLVQAGGSLRLSCAASGSTFVTYTMGWYRQAPGKERELVATITASGGSTYYADSVKGRFTISRDNEKNTVYLQMNSLKPEYTAVYYCAKRRSPVERYDFWGQGTQVTVSS | low polyreactivity
QVHLVESGGGLVQAGGSLRLSCAASGSTFYLYAMGWYRQATGKERELDASISRSGITTYSDSVKGRFTITRDNAKNNVYLQLNSRNPEDTADYYCAVRYYSASYWYGYDYWGLGTQVTVSS | high polyreactivity
QVHLVESGGGLVQAGGSLRLSCAASGSTFYNNAMGLYRQAPGKERELVASISLSAGSTYYADSVKGRFTISRDNAKNTVYLQMNSMKPEDTAVYYCAAESVAILVLVYPKGYGYWGQGTQVTVSS | low polyreactivity
QVHLVESGGGLVQAGGSLRLSCAASGSTIVDYHMAWYRQAPGKERELVASISSSGGSTYYADSVKGRFTISRDNAKNTVYLQMNSLKPEDTAVYYCAADTWGFWYWGPLFSKYGYWGQGTQVTVSS | low polyreactivity
QVHLVESGGGLVQAGGSLRLSCAASGSTLVIYAMGWYRQAPGKERELVAVITWSGGSTYYADSVKGRFTISRDNAKNTVYLQMNSLKPEDTAVYYCAKRPIVRQRSYYYWGQGTQVTVSS | low polyreactivity

From the nanobody polyreactivity screen of Harvey et al. (2022)
